Here are results for 69 substances from the Human Domainome abundance scans (Beltran et al. 2025).

± gives the uncertainty stated by the source.

The nature of this series: abundance fitness (aPCA) (normalised: wild type 0, dead -1); higher = more abundant; growth selection in yeast, the domain comes from the species named. The settings on record: Homo sapiens.
“Scaffold attachment factor B1 N47E, Q15424” came in with an abundance fitness of -0.168 ± 0.074. Substance “Scaffold attachment factor B1 N47H, Q15424” registered an abundance fitness of -0.349 ± 0.076.

In turn, “Scaffold attachment factor B1 N47I, Q15424” came in with an abundance fitness of -0.822 ± 0.09. The figure for “Scaffold attachment factor B1 N47K, Q15424” is -0.349 ± 0.1; for “Scaffold attachment factor B1 N47L, Q15424” it is -0.365 ± 0.061; for “Scaffold attachment factor B1 N47M, Q15424” it is -0.224 ± 0.073. Turning to “Scaffold attachment factor B1 N47P, Q15424”, the abundance fitness was -1.01 ± 0.11. The figure for “Scaffold attachment factor B1 N47Q, Q15424” is -0.227 ± 0.067; for “Scaffold attachment factor B1 N47R, Q15424” it is -0.207 ± 0.065; for “Scaffold attachment factor B1 N47S, Q15424” it is -0.236 ± 0.07. The figure for “Scaffold attachment factor B1 N47T, Q15424” is -0.331 ± 0.066. Substance “Scaffold attachment factor B1 N47V, Q15424” came in with an abundance fitness of -0.448 ± 0.056. Then “Scaffold attachment factor B1 N47W, Q15424”, with -0.593 ± 0.079. The figure for “Scaffold attachment factor B1 N47Y, Q15424” is -0.483 ± 0.088; for “Scaffold attachment factor B1 N53A, Q15424” it is -0.175 ± 0.056; for “Scaffold attachment factor B1 N53C, Q15424” it is -0.138 ± 0.083. The figure for “Scaffold attachment factor B1 N53D, Q15424” is -0.038 ± 0.068. Substance “Scaffold attachment factor B1 N53E, Q15424” returned an abundance fitness of -0.198 ± 0.087. Then “Scaffold attachment factor B1 N53F, Q15424”, with -0.354 ± 0.048; and “Scaffold attachment factor B1 N53G, Q15424”, with -0.08 ± 0.057. The figure for “Scaffold attachment factor B1 N53H, Q15424” is -0.127 ± 0.071; for “Scaffold attachment factor B1 N53I, Q15424” it is -0.27 ± 0.084; for “Scaffold attachment factor B1 N53M, Q15424” it is -0.376 ± 0.063.

In turn, “Scaffold attachment factor B1 N53P, Q15424” displayed an abundance fitness of -0.284 ± 0.06. The figure for “Scaffold attachment factor B1 N53Q, Q15424” is -0.288 ± 0.089; for “Scaffold attachment factor B1 N53R, Q15424” it is -0.067 ± 0.049; for “Scaffold attachment factor B1 N53S, Q15424” it is -0.085 ± 0.051. Then “Scaffold attachment factor B1 N53V, Q15424”, with -0.158 ± 0.056. Then “Scaffold attachment factor B1 N53W, Q15424”, with -0.712 ± 0.059; and “Scaffold attachment factor B1 N71A, Q15424”, with -0.329 ± 0.071; and “Scaffold attachment factor B1 N71C, Q15424”, with -0.207 ± 0.07. “Scaffold attachment factor B1 N71D, Q15424” yielded an abundance fitness of -0.247 ± 0.1. Then “Scaffold attachment factor B1 N71E, Q15424”, with -0.36 ± 0.072; and “Scaffold attachment factor B1 N71F, Q15424”, with -0.338 ± 0.068; and “Scaffold attachment factor B1 N71H, Q15424”, with -0.309 ± 0.1. Then “Scaffold attachment factor B1 N71I, Q15424”, with -0.468 ± 0.1. Then “Scaffold attachment factor B1 N71K, Q15424”, with -0.253 ± 0.073.

Take “Scaffold attachment factor B1 N71L, Q15424”: the abundance fitness was -0.299 ± 0.062. The figure for “Scaffold attachment factor B1 N71M, Q15424” is -0.3 ± 0.057; for “Scaffold attachment factor B1 N71P, Q15424” it is -0.365 ± 0.076.

On to “Scaffold attachment factor B1 N71Q, Q15424”, for which the abundance fitness was -0.263 ± 0.095. The figure for “Scaffold attachment factor B1 N71S, Q15424” is -0.19 ± 0.063; for “Scaffold attachment factor B1 N71T, Q15424” it is -0.267 ± 0.092. The figure for “Scaffold attachment factor B1 N71V, Q15424” is -0.211 ± 0.055; for “Scaffold attachment factor B1 N71W, Q15424” it is -0.39 ± 0.057. The figure for “Scaffold attachment factor B1 N71Y, Q15424” is -0.448 ± 0.094; for “Scaffold attachment factor B1 P72A, Q15424” it is -0.187 ± 0.07. Take “Scaffold attachment factor B1 P72C, Q15424”: the abundance fitness is -0.103 ± 0.061.

“Scaffold attachment factor B1 P72D, Q15424” gave an abundance fitness of -0.407 ± 0.1.

“Scaffold attachment factor B1 P72E, Q15424” had an abundance fitness of -0.302 ± 0.068. The figure for “Scaffold attachment factor B1 P72F, Q15424” is -0.185 ± 0.098; for “Scaffold attachment factor B1 P72G, Q15424” it is -0.11 ± 0.048; for “Scaffold attachment factor B1 P72H, Q15424” it is -0.149 ± 0.073.

For the substance “Scaffold attachment factor B1 P72I, Q15424”, the abundance fitness was -0.382 ± 0.11. As to “Scaffold attachment factor B1 P72K, Q15424”, the abundance fitness is -0.423 ± 0.091. “Scaffold attachment factor B1 P72L, Q15424” displayed an abundance fitness of -0.14 ± 0.048.

As for “Scaffold attachment factor B1 P72M, Q15424”, the abundance fitness is -0.362 ± 0.08. Then “Scaffold attachment factor B1 P72N, Q15424”, with -0.374 ± 0.11; and “Scaffold attachment factor B1 P72Q, Q15424”, with -0.432 ± 0.098; and “Scaffold attachment factor B1 P72R, Q15424”, with -0.23 ± 0.052. “Scaffold attachment factor B1 P72S, Q15424” yielded an abundance fitness of -0.197 ± 0.058. The figure for “Scaffold attachment factor B1 P72T, Q15424” is -0.329 ± 0.085; for “Scaffold attachment factor B1 P72V, Q15424” it is -0.116 ± 0.053. The figure for “Scaffold attachment factor B1 P72W, Q15424” is -0.296 ± 0.068.

For “Scaffold attachment factor B1 P72Y, Q15424”, the abundance fitness is -0.176 ± 0.06. The figure for “Scaffold attachment factor B1 R29A, Q15424” is -0.465 ± 0.072; for “Scaffold attachment factor B1 R29C, Q15424” it is -0.107 ± 0.073. The figure for “Scaffold attachment factor B1 R29D, Q15424” is -0.37 ± 0.091; for “Scaffold attachment factor B1 R29E, Q15424” it is -0.143 ± 0.068.
